Assay results taken from patent publication US20210388105A1 (ELPISCIENCE SUZHOU BIOPHARMA, published 2021).

T1: human CD39 (full length, on cells) (human, UniProt P49961 1-510)
T1 construct: Recombinant on CHOK1-hCD39 cells or natural on SK-MEL-28, SK-MEL-5 and MOLP-8 cells; the cell line is named under assay; also called hCD39; ENTPD1
T1 sequence: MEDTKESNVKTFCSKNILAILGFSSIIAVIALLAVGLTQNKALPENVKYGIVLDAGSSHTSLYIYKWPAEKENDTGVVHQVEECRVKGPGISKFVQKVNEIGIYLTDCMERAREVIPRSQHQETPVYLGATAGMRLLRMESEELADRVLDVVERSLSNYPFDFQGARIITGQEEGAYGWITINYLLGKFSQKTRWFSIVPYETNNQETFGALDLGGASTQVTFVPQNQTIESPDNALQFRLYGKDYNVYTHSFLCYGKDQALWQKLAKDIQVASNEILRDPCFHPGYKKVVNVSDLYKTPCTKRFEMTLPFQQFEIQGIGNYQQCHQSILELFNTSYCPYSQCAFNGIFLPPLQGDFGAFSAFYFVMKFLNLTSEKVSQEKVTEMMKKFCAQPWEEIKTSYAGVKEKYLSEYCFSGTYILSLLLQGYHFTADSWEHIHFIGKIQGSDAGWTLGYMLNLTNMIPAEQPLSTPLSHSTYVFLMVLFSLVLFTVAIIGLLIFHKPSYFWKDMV

T2: 6×His tagged human CD39 (human, UniProt P49961 38-478)
T2 construct: Analyte in the Biacore assay
T2 sequence: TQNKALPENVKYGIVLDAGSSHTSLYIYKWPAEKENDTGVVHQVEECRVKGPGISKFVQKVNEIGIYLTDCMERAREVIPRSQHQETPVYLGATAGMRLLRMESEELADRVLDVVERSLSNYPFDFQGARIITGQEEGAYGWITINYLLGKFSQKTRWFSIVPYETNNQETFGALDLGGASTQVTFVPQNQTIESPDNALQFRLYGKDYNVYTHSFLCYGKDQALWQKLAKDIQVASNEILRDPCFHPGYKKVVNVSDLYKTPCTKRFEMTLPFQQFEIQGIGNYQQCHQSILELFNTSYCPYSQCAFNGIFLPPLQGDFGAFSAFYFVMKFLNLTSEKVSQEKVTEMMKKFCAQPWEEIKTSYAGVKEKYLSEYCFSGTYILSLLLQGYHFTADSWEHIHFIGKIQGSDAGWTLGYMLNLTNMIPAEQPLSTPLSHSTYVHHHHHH

B1: mAb14 (antibody, V domains shown)
VH: EVKLEESGGGLVQPGGSMKLSCVASGFTFSKYWMNWVRQSPEKGLEWVAEIRLKSNKYGTHYAESVKGRFTISRDDSKNNVYLQMNNLRPEDTGIYYCTTQLDLYWFFDVWGAGTTVTVSS
VL: DIVMTQSPAILSVTPGDRVSLSCRASQSISDYLHWYQQKSHESPRLLIKYASQSISGIPSRFSGSGSGSNFTLSINSVEPEDVGVYFCQNGHSLPLTFGAGTKLELR
notes: mouse hybridoma antibody
B2: Antibody 9-8B (antibody, V domains shown)
VH: QIQLVQSGPELKKPGETVKISCKASGYTFTHYGMNWVKQAPGKGLKWMGWINTYTGELTYADDFKGRFAFSLETSASTAYLQINNLKNEDTATYFCARRAYYRYDYVMDYWGQGTSVTVSS
VL: DIVMTQSQKFMSTSVGDRVSVTCKASHNVGTNVAWYQQKPGQSPKALIYSASYRYSGVPGRFTGSGSGTDFTLTISNVQSEDLAEYFCHQYNNYPYTFGGGTKLEIK
B3: hu23.H5L5 (antibody, V domains shown)
VH: QVQLVQSGAEVKKPGASVKVSCKASGYNLKDTFLHWVRQAPGQGLEWMGRIDPANGNIKYDPKFQGRVTITADTSANTAYMELISLRSEDTAVYYCANSPYYYGSGYRIFDVWGQGTTVTVSS
VL: QIVLTQSPATLSLSPGERATLSCSAFSSVNYMHWYQQKPGQAPRLLIYTTSNLASGIPTRFSGSGSGTSYTLTISSLEPEDFAVYYCQQRSTYPFTFGQGTKLEIK
notes: humanized c23
B4: Antibody T895 (antibody, V domains shown)
VH: EVQLQQSGPELVKPGASVKMSCKASGYTFTDYNMHWVKQSHGRTLEWIGYIVPLNGGSTFNQKFKGRATLTVNTSSRTAYMELRSLTSEDSAAYYCARGGTRFAYWGQGTLVTVSA
VL: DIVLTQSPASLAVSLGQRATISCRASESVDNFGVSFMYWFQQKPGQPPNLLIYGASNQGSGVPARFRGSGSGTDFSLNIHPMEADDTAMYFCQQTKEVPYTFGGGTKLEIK
notes: also called 31895

Tests used:
[1] = molecular target: T1, human CD39 (full length, on cells); assay: FACS competition on CHOK1-hCD39; competitor 9-8B-Alexa488
Description: (§1) Anti-CD39 antibodies were labeled using Alex488 labeling kit and were diluted in a series of concentrations, before mixing with CHOK1-hCD39 cells to test binding EC₅₀using FACS. The non-labeled antibodies were tested for their blocking efficacy to the labelled ones. Briefly, mononuclear CHOK1-hCD39 cells were prepared to 2×10⁶/ml and plated into 96 well at 50 μl/well, then mixed with antibodies gradients to final volume at 100 μl, and then equal volume of Alex488 label antibodies were added at two folds EC80 concentration. 96 well plates were incubated at 4° C. for 1 hour, and spun down and washed 3 times with 200 μl FACS buffer. The FACS analysis was performed on FACScelesta machine and data was analyzed by Flowjo software. The blocking percentages were calculated and those having above 80% competition rate were allocated into one epitope group, compared with the non-competing well (Alex488 labeled antibody only).
(§2) Based on the competition results, the 4 anti-CD39 hybridoma antibodies (mAb14, mAb19, mAb21, mAb23) can be grouped into 4 different epitope groups, as shown in Table 11.

[2] = molecular target: T1, human CD39 (full length, on cells); assay: FACS competition on CHOK1-hCD39; competitor mAb14-Alexa488
Description: as §1, §2

[3] = molecular target: T1, human CD39 (full length, on cells); assay: FACS competition on CHOK1-hCD39; competitor mAb19-Alexa488
Description: as §1, §2

[4] = molecular target: T1, human CD39 (full length, on cells); assay: FACS competition on CHOK1-hCD39; competitor mAb21-Alexa488
Description: as §1, §2

[5] = molecular target: T1, human CD39 (full length, on cells); assay: FACS, MOLP-8 cells
Description: Similarly, human CD39 expressing cells SK-MEL-5, SK-MEL-28 or MOLP-8, were incubated with a gradient concentration of anti-CD39 antibodies for 30 minutes at 4° C. Cells were washed 3 times using FACS buffer and next incubated with fluorescence labelled secondary antibody (goat-anti-mouse IgG or goat anti-human IgG) for 30 minutes at 4° C. Cells were washed 3 times and then re-suspended in FACS buffer and analyzed by flow cytometry analysis on BD Celesta. Data plotted and analyzed using GraphPad Prism 8.02.
Binding affinity of the humanized antibodies hu23.H5L5 and hu14.H1L1 were tested on different cells by FACS following the similar method as described in Example 3.2.
Reference antibodies T895 and 1394 were tested in parallel as control antibodies. As shown in FIG. 12 and summarized in Table 23, both antibodies hu23.H5L5 and hu14.H1L1 bound to human and cynomolgus CD39 expressing cells in a dose-dependent manner and with similar affinity by EC₅₀ at a sub-nanomolar or nanomolar level. Neither of them recognized mouse CD39 in the FACS study. Maximum signal (mean fluorescence intensity, MFI) differed between cells for each antibody may result from their different expression level.

6×His tagged human CD39 = molecular target: T2, 6×His tagged human CD39; assay: Biacore SPR, antibody captured on CM5 chip, His-tagged CD39 as analyte
Description: In particular, humanized antibodies hu23.H5L5, hu23.201, hu14.H1L1 and reference antibodies 1394 and T895 were characterized for binding affinity against human CD39 using Biacore (GE). Briefly the antibodies to be tested were captured to CM5 chip (GE) using Human Antibody Capture Kit (GE). The antigen of 6×His tagged human CD39 was serially diluted for multiple doses and injected at 30 μl/min for 180s. Buffer flow was maintained for dissociation of 400s. 3 M MgCl2 was used for chip regeneration. The association and dissociation curves were fit with 1:1 binding model, and the Ka/Kd/KD values for each antibody were calculated.

Binder	blocking percentage [1]	blocking percentage [2]	blocking percentage [3]	blocking percentage [4]	EC50 [5]	Kd (6×His tagged human CD39)	koff (6×His tagged human CD39)	kon (6×His tagged human CD39)
B1	-11%	98%	6%	10%				
B2	98%	55%	19%	16%				
B3					0.14 nM	19.5 nM	0.0016 s⁻¹	82200 M⁻¹ s⁻¹
B4					0.11 nM	1040 nM	0.139 s⁻¹	133000 M⁻¹ s⁻¹
